In the supplement of paper PMC7877785:
± gives the uncertainty stated by the source.

Assay: self-splicing fitness, log relative to wild type (ln ratio); higher = more splicing; Tetrahymena group I intron in knt gene, E. coli kanamycin selection, DiMSum; sequences stand for … in CUCUCU…GGAGGGAAAAGUUAUCAGGCAUGCACCUGGUAGCUAGUCUUUAAACCAAUAGAUUGCAUCGGUUUAAAAGGCAAGACCGUCAAAUUGCGGGAAAGGGGUCAACAGCCGUUCAGUACCAAGUCUCAGGGGAAACUUUGAGAUGGCCUUGCAAAGGGUAUGGUAAUAAGCUGACGGACAUGGUCCUAACCACGCAGCCAAGUCCUAAGUCAACAGAUCUUCUGUUGAUAUGGAUGCAGUUCACAGACUAAAUGUCGGUCGGGGAAGAUGUAUUCUUCUCAUAAGAUAUAGUCGGACCUCUCCUUAAUGGGAGCUAGCGGAUGAAGUGAUGCAACACUGGAGCCGCUGGGAACUAAUUUGUAUGCGAAAGUAUAUUGAUUAGUUUUGGAGUACUCGUGGUCG
In short: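 Fitness was computed with DiMSum as the error-weighted combination of replicate fold changes, kanamycin versus none, each normalised to wild type. The library randomised all eight intron nucleotides of the P1ex region, with the intron placed in the knt kanamycin-resistance gene on pET-22b(+) in E. coli BL21(DE3). Six replicate transformations were grown overnight at 37°C or 30°C on LB agar with or without 25 μg/mL kanamycin, plus 100 μg/mL carbenicillin, 50 μM IPTG and 0.2% rhamnose. Pooled colonies were amplicon-sequenced on an Illumina HiSeq 2500.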

Row | Sequence | self-splicing fitness (ln) (30 °C) | self-splicing fitness (ln) (37 °C)
1 | CUUGAGCAAUAUUACGUACA | -1.97 ± 0.4 | -1.77 ± 0.38
2 | AUCGAGCAAUAUUACGUUAA | -3.73 ± 0.27 | -2.48 ± 0.29
3 | AUCUAGCAAUAUUACGAGAC | -4.67 ± 0.42 | -3.22 ± 0.3
4 | AGCUAGCAAUAUUACGUUUG | -4.09 ± 0.24 | -0.747 ± 0.15
5 | CACCAGCAAUAUUACGCAUU | -2.6 ± 0.086 | -1.86 ± 0.1
6 | CAUCAGCAAUAUUACGAGAA | -2.12 ± 0.21 | -2.09 ± 0.18
7 | CUUCAGCAAUAUUACGUCAG | -0.735 ± 0.054 | -0.0836 ± 0.082
8 | GGGUAGCAAUAUUACGUUGU | -2.46 ± 0.19 | -1.14 ± 0.17
9 | UAUUAGCAAUAUUACGACGU | -1.02 ± 0.2 | -0.561 ± 0.17
10 | ACCUAGCAAUAUUACGAAGC | -1.56 ± 0.11 | -0.832 ± 0.15
11 | UUCCAGCAAUAUUACGGCCC | -2.34 ± 0.38 | –
12 | CACCAGCAAUAUUACGCUAA | -2.78 ± 0.13 | -2.33 ± 0.16
13 | UGAGAGCAAUAUUACGGUCU | – | -2.37 ± 0.36
14 | AUCCAGCAAUAUUACGCCCC | -0.216 ± 0.11 | 0.691 ± 0.19
15 | UACAAGCAAUAUUACGAAAG | -2.61 ± 0.11 | -2.37 ± 0.16
16 | UAAAAGCAAUAUUACGUUCU | -1.87 ± 0.14 | -1.13 ± 0.14
17 | UAGUAGCAAUAUUACGAGGG | -3.04 ± 0.42 | -2.03 ± 0.36
18 | CGGCAGCAAUAUUACGCCCA | 0.189 ± 0.12 | -0.0939 ± 0.14
19 | UGUCAGCAAUAUUACGCUGU | -3.1 ± 0.23 | -1.63 ± 0.19
20 | CGCUAGCAAUAUUACGAACU | -0.352 ± 0.12 | -0.0958 ± 0.14
21 | GACAAGCAAUAUUACGGACA | -1.33 ± 0.14 | -0.153 ± 0.13
22 | UGGGAGCAAUAUUACGGGUG | -3.33 ± 0.47 | -0.981 ± 0.26
23 | AGGUAGCAAUAUUACGUAAG | -2.267 ± 0.017 | -1.25 ± 0.034
24 | AUAGAGCAAUAUUACGGGUC | -3.75 ± 0.36 | -2.58 ± 0.24
25 | CAGCAGCAAUAUUACGCGCG | -1.63 ± 0.099 | -1.3 ± 0.14

Row | Sequence | self-splicing fitness (ln) (30 °C) | self-splicing fitness (ln) (37 °C)
26 | UCGCAGCAAUAUUACGAUCG | -0.735 ± 0.092 | -0.359 ± 0.12
27 | CUCGAGCAAUAUUACGCCAU | -2.93 ± 0.48 | -1.94 ± 0.35
28 | UCGUAGCAAUAUUACGGUAA | -2.67 ± 0.35 | 0.253 ± 0.19
29 | GUUAAGCAAUAUUACGCUAG | -1.64 ± 0.11 | 0.113 ± 0.14
30 | UAAAAGCAAUAUUACGGGCG | -0.0526 ± 0.069 | 0.305 ± 0.076
31 | AUUGAGCAAUAUUACGUGGU | -3.28 ± 0.21 | -3.12 ± 0.43
32 | AAACAGCAAUAUUACGCGAU | -2.98 ± 0.16 | -2.42 ± 0.17
33 | GCAAAGCAAUAUUACGACCG | -0.859 ± 0.14 | -1.26 ± 0.25
34 | GCCGAGCAAUAUUACGCCCC | -1.58 ± 0.37 | –
35 | GUUUAGCAAUAUUACGCUUA | -1.24 ± 0.15 | -0.129 ± 0.12
36 | UAGAAGCAAUAUUACGUUGC | -4.3 ± 0.27 | -2.82 ± 0.24
37 | AGCAAGCAAUAUUACGUUGC | -3.69 ± 0.19 | -1.08 ± 0.16
38 | CCUGAGCAAUAUUACGUAUG | -2.38 ± 0.11 | -1.56 ± 0.11
39 | GGUCAGCAAUAUUACGGCAA | 0.415 ± 0.065 | 0.217 ± 0.083
40 | UCCUAGCAAUAUUACGGGCC | -2.79 ± 0.12 | -1.17 ± 0.11
41 | GCGGAGCAAUAUUACGGUGG | -3.54 ± 0.35 | -2.27 ± 0.39
42 | AUAUAGCAAUAUUACGAUAA | -1.38 ± 0.31 | -0.229 ± 0.39
43 | AAUCAGCAAUAUUACGAGAC | -3.64 ± 0.27 | -0.528 ± 0.12
44 | CCGAAGCAAUAUUACGGUAC | – | -1.85 ± 0.25
45 | UUGUAGCAAUAUUACGAGUU | -3.22 ± 0.25 | -2.61 ± 0.26
46 | CAUUAGCAAUAUUACGCCGC | -1.43 ± 0.29 | –
47 | CAAGAGCAAUAUUACGAGUU | -2.81 ± 0.13 | -2.82 ± 0.18
48 | AAACAGCAAUAUUACGUCCU | -0.281 ± 0.07 | 0.347 ± 0.094
49 | CCUGAGCAAUAUUACGAACU | -3.4 ± 0.13 | -2.42 ± 0.17
50 | GCCGAGCAAUAUUACGAGCU | -2.84 ± 0.26 | -3.15 ± 0.33

Row | Sequence | self-splicing fitness (ln) (30 °C) | self-splicing fitness (ln) (37 °C)
51 | UAAUAGCAAUAUUACGAAUU | – | -2.58 ± 0.24
52 | UCGGAGCAAUAUUACGGUAA | -3.18 ± 0.21 | -1.68 ± 0.23
53 | CGGGAGCAAUAUUACGCCGG | -2.87 ± 0.46 | -1.81 ± 0.34
54 | AGAGAGCAAUAUUACGCUAA | – | -0.209 ± 0.21
55 | UUGCAGCAAUAUUACGCGCC | -2.28 ± 0.44 | –
56 | GCUGAGCAAUAUUACGUAUA | -3.69 ± 0.26 | -2.22 ± 0.29
57 | UUUCAGCAAUAUUACGACGC | -2.68 ± 0.24 | -1.67 ± 0.19
58 | UUACAGCAAUAUUACGUAGC | -3.65 ± 0.3 | -2.92 ± 0.27
59 | UAUCAGCAAUAUUACGUUUG | -1.4 ± 0.068 | -0.266 ± 0.092
60 | GCCAAGCAAUAUUACGACAU | -2.357 ± 0.015 | -1.37 ± 0.033
61 | AUGCAGCAAUAUUACGGUUG | -4.33 ± 0.23 | -2.21 ± 0.19
62 | CUCAAGCAAUAUUACGUGGA | -3.76 ± 0.18 | -1.19 ± 0.084
63 | AAUGAGCAAUAUUACGCUUG | -3.09 ± 0.17 | -2.11 ± 0.18
64 | UGCAAGCAAUAUUACGUUGU | -4.31 ± 0.24 | -2.78 ± 0.2
65 | UAAGAGCAAUAUUACGCAAA | -2.38 ± 0.21 | -2.44 ± 0.21
66 | GAGGAGCAAUAUUACGGUCU | -3.51 ± 0.48 | -0.511 ± 0.21
67 | CAGGAGCAAUAUUACGAUAC | -2.81 ± 0.4 | –
68 | GCGUAGCAAUAUUACGAUCG | -1.34 ± 0.12 | -0.204 ± 0.13
69 | GCCCAGCAAUAUUACGGGGA | -0.813 ± 0.082 | -0.181 ± 0.099
70 | ACGCAGCAAUAUUACGCUUC | -2.75 ± 0.26 | -2.48 ± 0.22
71 | ACCGAGCAAUAUUACGCCGC | -2.66 ± 0.32 | -2.1 ± 0.29
72 | UAGCAGCAAUAUUACGCAUC | -4.15 ± 0.47 | -3.39 ± 0.26
73 | CCACAGCAAUAUUACGGAUC | -4.54 ± 0.34 | -2.8 ± 0.27
74 | UGGGAGCAAUAUUACGUAUA | – | -2.74 ± 0.35
75 | CUAGAGCAAUAUUACGACUU | -4.26 ± 0.27 | -2.51 ± 0.25

Row | Sequence | self-splicing fitness (ln) (30 °C) | self-splicing fitness (ln) (37 °C)
76 | AUUUAGCAAUAUUACGACUA | -0.0865 ± 0.18 | -0.454 ± 0.15
77 | GGGAAGCAAUAUUACGGAAU | – | -1.67 ± 0.42
78 | UGUAAGCAAUAUUACGGCUC | -1.94 ± 0.19 | -1.32 ± 0.29
79 | AGAAAGCAAUAUUACGUCAG | -1.94 ± 0.093 | -0.978 ± 0.11
80 | CGCUAGCAAUAUUACGGCAG | -1.29 ± 0.082 | -0.703 ± 0.15
81 | GUUCAGCAAUAUUACGGCCU | -1.02 ± 0.2 | -0.57 ± 0.24
82 | GUUAAGCAAUAUUACGGGAC | -1.6 ± 0.17 | -0.964 ± 0.23
83 | GACAAGCAAUAUUACGCAAA | -2.04 ± 0.13 | -1.81 ± 0.12
84 | GGUUAGCAAUAUUACGAACA | -0.6 ± 0.18 | 0.626 ± 0.25
85 | CGGGAGCAAUAUUACGCGUC | -2.87 ± 0.22 | -2.8 ± 0.27
86 | CCCGAGCAAUAUUACGAUGA | -3.45 ± 0.43 | -2.4 ± 0.28
87 | UAGCAGCAAUAUUACGUGAA | -1.71 ± 0.16 | -0.671 ± 0.18
88 | CGAUAGCAAUAUUACGCGAU | -3.09 ± 0.18 | -2.6 ± 0.29
89 | AUAUAGCAAUAUUACGUUCG | -1.57 ± 0.2 | -0.377 ± 0.27
90 | AAGCAGCAAUAUUACGGAUG | -3.17 ± 0.2 | -2.57 ± 0.2
91 | CGCUAGCAAUAUUACGUCCA | -1.49 ± 0.27 | -1.04 ± 0.29
92 | UGAUAGCAAUAUUACGAUGC | -3.93 ± 0.26 | -1.95 ± 0.17
93 | CGCGAGCAAUAUUACGUACU | -3.32 ± 0.28 | -2.3 ± 0.31
94 | UUAAAGCAAUAUUACGUCGC | -3.09 ± 0.21 | -2.18 ± 0.23
95 | AACCAGCAAUAUUACGAAAC | -2.26 ± 0.14 | -0.477 ± 0.16
96 | UACAAGCAAUAUUACGCUGU | – | -1.65 ± 0.28
97 | UCUCAGCAAUAUUACGGGUU | -2.06 ± 0.081 | -1.27 ± 0.1
98 | AUGAAGCAAUAUUACGGCGC | -0.339 ± 0.074 | 0.665 ± 0.11
99 | CGAAAGCAAUAUUACGGUUC | -3.34 ± 0.16 | -2.33 ± 0.17
